Results: article PMC4072592

What was measured:
[1] = molecular target: N-PYM-GFP (S2 cells) (Drosophila) (UniProt P82804); assay: co-IP + cross-linking; as the native GFP-Trap IP from S2 cell extracts, but extracts cross-linked with 1 mM DSP for 1 h at 4°C before the IP; blots quantified by densitometry
[2] = molecular target: ΔC-PYM-GFP (S2 cells) (Drosophila); assay: as above
[3] = molecular target: N-PYM-GFP (S2 cells) (Drosophila) (UniProt P82804); assay: co-IP; GFP-Trap beads on cytoplasmic extracts of S2 cells expressing GFP or GFP-tagged FL-, ΔC- or N-PYM, native conditions; blots of Mago and Y14 quantified by densitometry, coIP efficiency as percent of the GFP enrichment

Y14-Mago heterodimer, endogenous in S2 cells, sequence (Q9V535 whole entry): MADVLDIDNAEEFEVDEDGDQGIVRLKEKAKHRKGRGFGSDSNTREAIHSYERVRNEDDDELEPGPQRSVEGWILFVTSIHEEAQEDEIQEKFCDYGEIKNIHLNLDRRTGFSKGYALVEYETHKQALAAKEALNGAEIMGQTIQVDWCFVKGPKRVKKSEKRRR
Y14-Mago heterodimer, endogenous in S2 cells, sequence (P49028 whole entry): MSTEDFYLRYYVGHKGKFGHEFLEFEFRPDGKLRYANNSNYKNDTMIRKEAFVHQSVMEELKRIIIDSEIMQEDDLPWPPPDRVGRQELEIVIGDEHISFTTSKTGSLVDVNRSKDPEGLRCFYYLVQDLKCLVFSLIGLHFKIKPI
ΔC-PYM-GFP (S2 cells) (Drosophila), sequence (P82804 whole entry, stated change not applied): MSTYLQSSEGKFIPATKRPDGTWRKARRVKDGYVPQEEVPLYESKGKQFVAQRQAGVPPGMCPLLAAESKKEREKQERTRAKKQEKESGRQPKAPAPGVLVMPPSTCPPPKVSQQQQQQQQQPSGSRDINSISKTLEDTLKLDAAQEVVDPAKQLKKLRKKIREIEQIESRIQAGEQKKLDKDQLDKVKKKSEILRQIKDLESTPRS
N-PYM-GFP (S2 cells) (Drosophila), sequence (P82804 whole entry): as the sequence (P82804 whole entry, stated change not applied) above

Y14-Mago heterodimer, endogenous in S2 cells (from UniProt Q9V535 1-165; P49028 1-147) (complex)
coIP efficiency of Mago (percent of the GFP enrichment), DSP cross-linked [1]: 84.9%
coIP efficiency of Mago (percent of the GFP enrichment), DSP cross-linked [2]: 98.9%
fold increase of binding upon DSP treatment against native [2]: 3.6 fold
coIP efficiency of Mago (percent of the GFP enrichment), native [3]: 0.92%
